Source: patent publication US20120064064A1

Target: human IL1-R (human) (UniProt P14778)
Experiment: cell-based or functional assay

UniProt P14778, sequence (P14778 18-569): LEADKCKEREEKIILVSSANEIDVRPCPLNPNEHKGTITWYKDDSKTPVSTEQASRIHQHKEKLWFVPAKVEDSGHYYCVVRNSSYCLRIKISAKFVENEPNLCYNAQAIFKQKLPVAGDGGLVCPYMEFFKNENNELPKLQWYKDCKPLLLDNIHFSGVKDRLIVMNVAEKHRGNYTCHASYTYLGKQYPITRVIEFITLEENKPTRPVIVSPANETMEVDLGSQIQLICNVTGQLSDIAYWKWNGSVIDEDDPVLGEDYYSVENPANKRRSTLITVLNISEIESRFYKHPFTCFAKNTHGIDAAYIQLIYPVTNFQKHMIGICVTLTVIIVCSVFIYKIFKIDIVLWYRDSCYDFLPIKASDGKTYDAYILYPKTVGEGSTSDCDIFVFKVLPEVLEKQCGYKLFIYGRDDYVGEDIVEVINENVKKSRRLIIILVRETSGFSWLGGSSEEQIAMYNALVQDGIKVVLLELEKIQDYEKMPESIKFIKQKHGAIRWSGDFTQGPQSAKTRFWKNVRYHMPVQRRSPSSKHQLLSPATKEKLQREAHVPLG

IL-8 release assay in MRC-5 cells (IL-1a stimulated), EC50: 0.074 nM
Substance: natural IL1-R antagonist (IL1-Ra) (from UniProt P18510 26-177) (ligand)
